B1: Fab323-G9 (Fab, V domains shown)
VH: EVQLLESGGGLVQPGGSLRLSCAASGFTFSSYWMHWVRQAPGKGLEWVSAISGSGGSTYYADSVKGRFTISRDNSKNTLYLQMNSLRAEDTAVYYCAKYLRWGSYGILDYWGQGTLVTVSS
VL: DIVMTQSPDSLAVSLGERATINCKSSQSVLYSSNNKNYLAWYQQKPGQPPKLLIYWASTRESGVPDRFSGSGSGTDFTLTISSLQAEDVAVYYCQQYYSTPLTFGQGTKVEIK
notes: Human Fab from a pIX phage library, made in E. coli; kappa light chain (germline B3 scaffold); also called VH323-G9/VLB3
B2: Fab551-3 (Fab, V domains shown)
VH: EVQLVQSGAEVKKPGESLKISCKGSGYSFTSYWIGWVRQMPGKGLEWMGIIYPGDSDTRYSPSFQGQVTISADKSISTAYLQWSSLKASDTAMYYCARGLFWFFDYWGQGTLVTVSS
VL: EIVLTQSPATLSLSPGERATLSCRASQSVDSWLAWYQQKPGQAPRLLIYDASNRATGIPARFSGSGSGTDFTLTISSLEPEDFAVYYCQQFDTWPITFGQGTKVEIK
notes: Human Fab from a pIX phage library, made in E. coli; kappa light chain
B3: Fab169-31 (Fab, V domains shown)
VH: QVQLVQSGAEVKKPGSSVKVSCKASGGTFSSYAISWVRQAPGQGLEWMGGIIPIFGTANYAQKFQGRVTITADESTSTAYMELSSLRSEDTAVYYCARHLYYMLDYWGQGTLVTVSS
VL: EIVLTQSPATLSLSPGERATLSCRASQSVADWLAWYQQKPGQAPRLLIYDASNRATGIPARFSGSGSGTDFTLTISSLEPEDFAVYYCQQYDGWPITFGQGTKVEIK
notes: Human Fab from a pIX phage library, made in E. coli; kappa light chain; also called CNTO 4093
B4: Fab323-G1 (Fab, V domains shown)
VH: EVQLLESGGGLVQPGGSLRLSCAASGFTFSDYWMSWVRQAPGKGLEWVSGIWGSGSSTYYADSVKGRFTISRDNSKNTLYLQMNSLRAEDTAVYYCAKHWGRGGDLDYWGQGTLVTVSS
VL: EIVLTQSPATLSLSPGERATLSCRASQSVSSYLAWYQQKPGQAPRLLIYDASNRATGIPARFSGSGSGTDFTLTISSLEPEDFAVYYCQQRSNWPLTFGQGTKVEIK
notes: Human Fab from a pIX phage library, made in E. coli; kappa light chain (germline L6 scaffold); also called CNTO 3631
B5: Fab169-64 (Fab, V domains shown)
VH: QVQLVQSGAEVKKPGSSVKVSCKASGGTFSSYAISWVRQAPGQGLEWMGGIIPIFGTANYAQKFQGRVTITADESTSTAYMELSSLRSEDTAVYYCARNIVGDYLLDYWGQGTLVTVSS
VL: EIVLTQSPATLSLSPGERATLSCRASQSVDDWLAWYQQKPGQAPRLLIYDASNRATGIPARFSGSGSGTDFTLTISSLEPEDFAVYYCQQGDTAPITFGQGTKVEIK
notes: Human Fab from a pIX phage library, made in E. coli; kappa light chain; also called VH169-64/VL169-64
B6: Fab169-C2 (Fab, V domains shown)
VH: QVQLVQSGAEVKKPGSSVKVSCKASGGTFSSYAISWVRQAPGQGLEWMGGIIPIFGTANYAQKFQGRVTITADESTSTAYMELSSLRSEDTAVYYCARHWRLNYWGQGTLVTVSS
VL: EIVLTQSPATLSLSPGERATLSCRASQSVSSYLAWYQQKPGQAPRLLIYDASNRATGIPARFSGSGSGTDFTLTISSLEPEDFAVYYCQQRSNWPLTFGQGTKVEIK
notes: Human Fab from a pIX phage library, made in E. coli; kappa light chain (germline L6 scaffold); also called VH169-C2/VLL6
B7: Fab169-47 (Fab, V domains shown)
VH: QVQLVQSGAEVKKPGSSVKVSCKASGGTFSSYAISWVRQAPGQGLEWMGGIIPIFGTANYAQKFQGRVTITADESTSTAYMELSSLRSEDTAVYYCARTSPSFDYWGQGTLVTVSS
VL: EIVLTQSPATLSLSPGERATLSCRASQSVRDFLAWYQQKPGQAPRLLIYYASNRATGIPARFSGSGSGTDFTLTISSLEPEDFAVYYCQQGFHWPFTFGQGTKVEIK
notes: Human Fab from a pIX phage library, made in E. coli; kappa light chain; also called VH169-47/VL169-47
B8: Fab169-G11 (Fab, V domains shown)
VH: QVQLVQSGAEVKKPGSSVKVSCKASGGTFSSYAISWVRQAPGQGLEWMGGIIPIFGTANYAQKFQGRVTITADESTSTAYMELSSLRSEDTAVYYCARDGYDIVLGIFDYWGQGTLVTVSS
VL: EIVLTQSPATLSLSPGERATLSCRASQSVSSYLAWYQQKPGQAPRLLIYDASNRATGIPARFSGSGSGTDFTLTISSLEPEDFAVYYCQQRSNWPLTFGQGTKVEIK
notes: Human Fab from a pIX phage library, made in E. coli; kappa light chain (germline L6 scaffold); also called VH169-G11/VLL6
B9: Fab169-34 (Fab, V domains shown)
VH: QVQLVQSGAEVKKPGSSVKVSCKASGGTFSSYAISWVRQAPGQGLEWMGGIIPIFGTANYAQKFQGRVTITADESTSTAYMELSSLRSEDTAVYYCAREGPASWDNWALDYWGQGTLVTVSS
VL: EIVLTQSPATLSLSPGERATLSCRASQSVSDWLAWYQQKPGQAPRLLIYYASNRATGIPARFSGSGSGTDFTLTISSLEPEDFAVYYCQQSSTAPITFGQGTKVEIK
notes: Human Fab from a pIX phage library, made in E. coli; kappa light chain; also called VH169-34/VL169-34
B10: Fab169-45 (Fab, V domains shown)
VH: QVQLVQSGAEVKKPGSSVKVSCKASGGTFSSYAISWVRQAPGQGLEWMGGIIPIFGTANYAQKFQGRVTITADESTSTAYMELSSLRSEDTAVYYCARRLGLFDYWGQGTLVTVSS
VL: EIVLTQSPATLSLSPGERATLSCRASQSVDSALAWYQQKPGQAPRLLIYDASNRATGIPARFSGSGSGTDFTLTISSLEPEDFAVYYCQQYDRWPLTFGQGTKVEIK
notes: Human Fab from a pIX phage library, made in E. coli; kappa light chain; also called VH169-45/VL169-45
B11: Fab 169-76 (Fab, V domains shown)
VH: QVQLVQSGAEVKKPGSSVKVSCKASGGTFSSYGISWVRQAPGQGLEWMGGIIPYFGTANYAQKFQGRVTITADESTSTAYMELSSLRSEDTAVYYCARPTNVLDYWGQGTLVTVSS
VL: EIVLTQSPATLSLSPGERATLSCRASQSVRKFLAWYQQKPGQAPRLLIYDASNRATGIPARFSGSGSGTDFTLTISSLEPEDFAVYYCQQSNNWPFTFGQGTKVEIK
notes: Human Fab from a pIX phage library, made in E. coli; kappa light chain (detected with anti-kappa-HRP); also called VH169-76/VL169-76
B12: Fab323-B3 (Fab, V domains shown)
VH: EVQLLESGGGLVQPGGSLRLSCAASGFTFSSYAMSWVRQAPGKGLEWVSAIRYDGSSKYYADSVKGRFTISRDNSKNTLYLQMNSLRAEDTAVYYCAKNLKILDYWGQGTLVTVSS
VL: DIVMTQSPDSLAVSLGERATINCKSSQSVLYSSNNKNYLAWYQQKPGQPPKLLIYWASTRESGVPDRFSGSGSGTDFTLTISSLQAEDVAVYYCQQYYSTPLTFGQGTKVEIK
notes: Human Fab from a pIX phage library, made in E. coli; kappa light chain (germline B3 scaffold); also called VH323-B3/VLB3

Columns and labels:
rat collagen I = target: T1, rat collagen I (rat, UniProt P02454 152-1207; P02466 86-1125); assay: ELISA, plate coated with 10 µg/ml rat collagen I, anti-kappa-HRP, chemiluminescence
T1 construct: Bought collagen preparation
T1 sequence (P02454 152-1207, chain 1 of 2): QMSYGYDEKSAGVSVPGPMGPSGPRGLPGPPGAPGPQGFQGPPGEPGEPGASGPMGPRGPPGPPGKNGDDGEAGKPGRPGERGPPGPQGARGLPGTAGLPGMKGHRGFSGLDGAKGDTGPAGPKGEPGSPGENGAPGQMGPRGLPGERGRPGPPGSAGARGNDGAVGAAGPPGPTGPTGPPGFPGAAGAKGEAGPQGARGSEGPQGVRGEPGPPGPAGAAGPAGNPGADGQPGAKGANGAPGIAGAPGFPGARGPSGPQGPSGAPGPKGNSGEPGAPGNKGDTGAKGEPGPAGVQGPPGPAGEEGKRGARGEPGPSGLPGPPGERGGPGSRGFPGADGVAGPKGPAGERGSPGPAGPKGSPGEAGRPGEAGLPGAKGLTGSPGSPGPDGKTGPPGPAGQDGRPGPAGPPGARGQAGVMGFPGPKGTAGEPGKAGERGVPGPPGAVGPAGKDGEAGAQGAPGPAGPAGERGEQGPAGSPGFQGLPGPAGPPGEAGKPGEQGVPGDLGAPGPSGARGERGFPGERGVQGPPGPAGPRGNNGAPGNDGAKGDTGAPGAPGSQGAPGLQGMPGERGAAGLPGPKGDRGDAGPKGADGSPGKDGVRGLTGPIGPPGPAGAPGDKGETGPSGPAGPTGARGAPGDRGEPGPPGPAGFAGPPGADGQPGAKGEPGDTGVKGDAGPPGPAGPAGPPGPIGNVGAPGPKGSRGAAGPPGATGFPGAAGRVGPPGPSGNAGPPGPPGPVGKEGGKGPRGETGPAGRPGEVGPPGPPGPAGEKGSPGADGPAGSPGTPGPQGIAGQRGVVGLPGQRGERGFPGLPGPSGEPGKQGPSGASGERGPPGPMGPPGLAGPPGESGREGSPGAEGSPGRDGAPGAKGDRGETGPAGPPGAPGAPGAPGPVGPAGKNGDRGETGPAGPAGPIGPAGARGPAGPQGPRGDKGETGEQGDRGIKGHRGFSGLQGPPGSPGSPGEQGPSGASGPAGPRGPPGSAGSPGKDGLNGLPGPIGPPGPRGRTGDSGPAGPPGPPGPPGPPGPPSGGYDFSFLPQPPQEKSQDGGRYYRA
T1 sequence (P02466 86-1125, chain 2 of 2): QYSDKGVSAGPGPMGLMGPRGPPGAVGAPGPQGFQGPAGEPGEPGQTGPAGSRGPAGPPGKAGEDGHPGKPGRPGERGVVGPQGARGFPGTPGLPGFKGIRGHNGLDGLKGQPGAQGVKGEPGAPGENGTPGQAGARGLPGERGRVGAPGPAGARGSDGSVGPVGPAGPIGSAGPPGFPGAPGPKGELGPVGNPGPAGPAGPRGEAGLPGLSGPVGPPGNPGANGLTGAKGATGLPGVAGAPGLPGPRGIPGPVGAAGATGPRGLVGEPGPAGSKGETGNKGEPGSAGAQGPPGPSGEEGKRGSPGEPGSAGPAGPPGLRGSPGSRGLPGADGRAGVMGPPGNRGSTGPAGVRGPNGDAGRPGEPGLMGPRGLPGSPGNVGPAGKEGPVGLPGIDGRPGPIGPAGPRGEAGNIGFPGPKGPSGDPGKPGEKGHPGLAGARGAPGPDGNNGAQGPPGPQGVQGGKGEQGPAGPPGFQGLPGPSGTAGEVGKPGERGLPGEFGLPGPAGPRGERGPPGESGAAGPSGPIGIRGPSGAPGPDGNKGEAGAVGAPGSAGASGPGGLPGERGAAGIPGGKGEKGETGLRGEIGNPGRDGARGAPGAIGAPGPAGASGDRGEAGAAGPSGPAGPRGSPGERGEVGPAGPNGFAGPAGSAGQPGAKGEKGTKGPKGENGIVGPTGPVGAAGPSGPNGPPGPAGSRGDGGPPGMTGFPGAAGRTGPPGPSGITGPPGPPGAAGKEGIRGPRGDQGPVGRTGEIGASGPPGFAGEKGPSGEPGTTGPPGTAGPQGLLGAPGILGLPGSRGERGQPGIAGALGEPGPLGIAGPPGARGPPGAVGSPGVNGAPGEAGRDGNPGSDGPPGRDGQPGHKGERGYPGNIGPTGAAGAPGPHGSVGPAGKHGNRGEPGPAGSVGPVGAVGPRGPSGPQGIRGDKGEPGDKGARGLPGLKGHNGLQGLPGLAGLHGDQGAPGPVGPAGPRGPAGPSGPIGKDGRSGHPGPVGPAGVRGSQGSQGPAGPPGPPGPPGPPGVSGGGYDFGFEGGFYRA
Protocol: (§1) Maxisorp ELISA plates (Nunc) were coated with 10 μg/ml human collagen I (Chondrex), human collagen II (Chondrex), rat collagen I (Chondrex), rat collagen II (Chondrex) or with 5 μg/ml human collagen IV (Chemicon) or human collagen V (Chemicon), or with anti-Fd (the Binding Site) at 1 μg/ml, all in PBS, according to manufacturer's instructions. The wells were washed three times in TBST and blocked for one hour with 200 μL 3% milk in TBST. 100 μL of the Fab lysate was added onto the wells of the coated ELISA plates, and incubated 1 hour at room temperature. The wells were washed three times followed by addition of 100 μL of anti-kappa-HRP (Southern Biotech) at 1:5000 in PBS. The plates were incubated at room temperature for one hour, washed three times with TBST, and developed with BM Chemiluminescence ELISA Substrate (Roche Applied Science). The clones that bound to human and rat collagen II without binding to human collagen I, IV or V, or rat collagen I were sequenced and unique clones were further characterized.

human collagen I = target: T2, human collagen I (human, UniProt P02452 162-1218; P08123 80-1119); assay: ELISA, plate coated with 10 µg/ml human collagen I, anti-kappa-HRP, chemiluminescence
T2 construct: Bought collagen preparation
Protocol: as §1

human collagen II [1] = target: T3, human collagen II (human, UniProt P02458 182-1241); assay: ELISA, purified Fab 10 ng/ml-10 ug/ml on coated collagen II
T3 construct: Purified human collagen II (Chondrex #2015), isolated from cartilage; also called huColII; human type II collagen
T3 sequence (P02458 182-1241 limits assumed): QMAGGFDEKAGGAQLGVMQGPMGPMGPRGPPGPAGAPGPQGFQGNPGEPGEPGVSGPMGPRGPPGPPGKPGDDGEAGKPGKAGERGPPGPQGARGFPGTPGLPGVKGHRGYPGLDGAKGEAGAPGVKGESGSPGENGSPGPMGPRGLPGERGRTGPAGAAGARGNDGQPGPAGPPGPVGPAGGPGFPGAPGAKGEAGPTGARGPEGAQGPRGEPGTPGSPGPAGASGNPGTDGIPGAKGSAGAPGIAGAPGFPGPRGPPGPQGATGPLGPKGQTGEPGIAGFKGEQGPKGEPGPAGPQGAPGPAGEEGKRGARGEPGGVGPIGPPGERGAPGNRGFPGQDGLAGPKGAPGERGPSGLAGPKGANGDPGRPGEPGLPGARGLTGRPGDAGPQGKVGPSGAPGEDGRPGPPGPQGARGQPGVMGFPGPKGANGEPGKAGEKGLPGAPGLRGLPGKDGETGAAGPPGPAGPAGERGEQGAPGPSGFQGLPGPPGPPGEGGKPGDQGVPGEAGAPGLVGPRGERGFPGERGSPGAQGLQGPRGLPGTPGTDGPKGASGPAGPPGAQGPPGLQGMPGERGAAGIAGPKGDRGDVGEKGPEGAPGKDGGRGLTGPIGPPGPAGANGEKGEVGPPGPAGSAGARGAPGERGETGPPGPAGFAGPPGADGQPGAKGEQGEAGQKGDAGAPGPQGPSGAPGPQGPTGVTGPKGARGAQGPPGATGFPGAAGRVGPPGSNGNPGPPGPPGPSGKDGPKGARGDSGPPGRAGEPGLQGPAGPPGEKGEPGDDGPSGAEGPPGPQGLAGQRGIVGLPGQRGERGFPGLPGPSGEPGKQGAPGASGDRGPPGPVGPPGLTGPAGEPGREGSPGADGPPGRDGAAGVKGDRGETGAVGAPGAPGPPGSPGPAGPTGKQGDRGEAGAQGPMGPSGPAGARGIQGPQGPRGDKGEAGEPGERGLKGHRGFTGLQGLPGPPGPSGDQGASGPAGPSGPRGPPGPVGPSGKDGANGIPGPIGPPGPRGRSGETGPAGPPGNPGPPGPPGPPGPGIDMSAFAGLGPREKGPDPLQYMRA
Protocol: as §1
EC50 values were obtained for select Fabs using ELISA assay as described above. In the assays, 100 microliters of each Fab was added in a concentration range between 10 ng/ml-10 μg/ml onto the wells.

rat collagen II [2] = target: T4, rat collagen II (rat, UniProt P05539 114-1173); assay: ELISA, plate coated with 10 µg/ml rat collagen II, 100 µL Fab lysate, anti-kappa-HRP, chemiluminescence
T4 construct: Bought collagen preparation
T4 sequence (P05539 114-1173 limits assumed): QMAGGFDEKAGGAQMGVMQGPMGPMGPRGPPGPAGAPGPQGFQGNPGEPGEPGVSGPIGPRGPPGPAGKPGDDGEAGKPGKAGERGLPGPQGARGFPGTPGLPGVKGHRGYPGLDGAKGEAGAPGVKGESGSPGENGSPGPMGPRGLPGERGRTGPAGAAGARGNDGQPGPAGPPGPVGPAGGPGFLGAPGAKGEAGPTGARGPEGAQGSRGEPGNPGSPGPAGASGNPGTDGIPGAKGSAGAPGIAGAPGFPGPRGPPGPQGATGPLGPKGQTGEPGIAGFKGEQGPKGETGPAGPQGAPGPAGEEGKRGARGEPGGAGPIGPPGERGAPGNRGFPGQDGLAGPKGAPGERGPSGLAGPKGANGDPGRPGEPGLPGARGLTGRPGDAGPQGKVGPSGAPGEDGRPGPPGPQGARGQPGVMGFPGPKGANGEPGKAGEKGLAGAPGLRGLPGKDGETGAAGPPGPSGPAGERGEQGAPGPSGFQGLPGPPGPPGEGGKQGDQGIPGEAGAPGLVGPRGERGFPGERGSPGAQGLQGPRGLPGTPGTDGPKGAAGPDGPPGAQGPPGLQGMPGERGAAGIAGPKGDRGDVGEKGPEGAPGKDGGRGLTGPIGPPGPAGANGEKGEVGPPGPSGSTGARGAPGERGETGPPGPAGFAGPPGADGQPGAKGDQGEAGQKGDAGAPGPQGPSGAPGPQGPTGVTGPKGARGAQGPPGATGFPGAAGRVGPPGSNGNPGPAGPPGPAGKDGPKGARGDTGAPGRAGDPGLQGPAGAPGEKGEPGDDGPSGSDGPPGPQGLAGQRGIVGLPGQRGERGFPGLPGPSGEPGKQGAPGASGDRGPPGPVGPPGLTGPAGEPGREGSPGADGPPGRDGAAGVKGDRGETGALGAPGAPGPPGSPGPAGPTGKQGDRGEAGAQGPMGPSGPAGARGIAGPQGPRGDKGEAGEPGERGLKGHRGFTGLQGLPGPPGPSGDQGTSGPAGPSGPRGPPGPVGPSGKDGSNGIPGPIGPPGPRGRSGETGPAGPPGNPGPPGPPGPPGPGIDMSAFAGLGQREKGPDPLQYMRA
Protocol: as §1

human collagen II [3] = target: T3, human collagen II; assay: Biacore binding kinetics
rat collagen II [4] = target: T4, rat collagen II; assay: Biacore binding kinetics
human collagen II [5] = target: T3, human collagen II; assay: ELISA, plate coated with 10 µg/ml human collagen II, 100 µL Fab lysate, anti-kappa-HRP, chemiluminescence
Protocol: as §1

Binder | binding result (rat collagen I) | binding result (human collagen I) | EC50 (human collagen II [1]) | binding result (rat collagen II [2]) | Kd (human collagen II [3]) | Kd (rat collagen II [4]) | binding result (human collagen II [5])
B1 | no binding (tested: not given (100 µL Fab lysate)) | no binding (tested: not given (100 µL Fab lysate)) | – | – | – | – | –
B2 | no binding (tested: not given (100 µL Fab lysate)) | no binding (tested: not given (100 µL Fab lysate)) | 0.114 µg/mL | binds | – | – | –
B3 | no binding (tested: not given (100 µL Fab lysate)) | no binding (tested: not given (100 µL Fab lysate)) | 0.113 µg/mL | – | 50 nM | 75 nM | –
B4 | – | – | 0.123 µg/mL | – | 6 nM | 5 nM | –
B5 | no binding (tested: not given (100 µL Fab lysate)) | no binding (tested: not given (100 µL Fab lysate)) | – | binds | – | – | binds
B6 | no binding (tested: not given (100 µL Fab lysate)) | no binding (tested: not given (100 µL Fab lysate)) | – | binds | – | – | binds
B7 | no binding (tested: not given (100 µL Fab lysate)) | – | – | binds | – | – | binds
B8 | no binding (tested: not given (100 µL Fab lysate)) | – | – | binds | – | – | binds
B9 | – | – | – | binds | – | – | binds
B10 | – | – | – | binds | – | – | binds
B11 | no binding (tested: not given (100 µL Fab lysate)) | no binding (tested: not given (100 µL Fab lysate)) | – | binds | – | – | binds
B12 | no binding (tested: not given (100 µL Fab lysate)) | no binding (tested: not given (100 µL Fab lysate)) | – | – | – | – | –

Source: patent US20140220634A1 (Janssen / Centocor, published 2014)
